Measurements taken from patent US20140087995A1 (published 2014).
Numbered stars: 1 amine (or outer) side, 2 acyl side, 3 side chain; on linkers, the order of the positions; unused ones are H or OH. Bridge positions count the residues as written; N and C are the ends. Side chains are listed from the residue outwards. Ends that are not written are not given here. * marks the point of attachment. C20 diacid = O=C(O)CCCCCCCCCCCCCCCCCCC(=O)*; γGlu = O=C(O)[C@H](CCC(=O)[*:2])N[*:1]

T1: human amylin receptor (amylin 3(a) receptor: human calcitonin receptor with RAMP-3) (human, UniProt P30988 25-474; O60896 24-148)
T1 construct: whole, on cells; also called hAmylin-R; hAmylinR
T1 sequence (looked up) 1: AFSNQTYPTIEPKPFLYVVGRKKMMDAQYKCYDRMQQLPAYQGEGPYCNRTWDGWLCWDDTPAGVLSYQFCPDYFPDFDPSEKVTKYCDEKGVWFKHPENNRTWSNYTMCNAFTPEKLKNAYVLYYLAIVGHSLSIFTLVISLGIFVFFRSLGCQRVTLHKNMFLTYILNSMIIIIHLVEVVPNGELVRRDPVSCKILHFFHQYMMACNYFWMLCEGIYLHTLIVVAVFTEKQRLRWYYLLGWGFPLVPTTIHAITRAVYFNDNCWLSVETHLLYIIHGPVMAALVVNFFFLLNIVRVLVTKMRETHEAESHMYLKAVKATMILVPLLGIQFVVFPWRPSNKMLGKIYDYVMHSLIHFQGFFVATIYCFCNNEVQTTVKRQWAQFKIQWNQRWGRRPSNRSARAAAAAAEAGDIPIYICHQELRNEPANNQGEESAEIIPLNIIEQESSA
T1 sequence (looked up) 2: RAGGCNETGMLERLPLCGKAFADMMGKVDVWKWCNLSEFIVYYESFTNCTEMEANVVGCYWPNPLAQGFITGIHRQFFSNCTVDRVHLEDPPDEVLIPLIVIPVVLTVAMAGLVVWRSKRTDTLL

B1: N^ε1-[(4S)-4-carboxy-4-(19-carboxynonadecanoylamino)butanoyl]-[Ala14,Arg17,Pro21,Pro27,His34]-h-amylin (peptide)
peptide: K([γGlu-C20 diacid])CNTATCATQRLAAFLRHSSPNFGAIPSSTNVGHNTY-NH2
modifications: disulfide 2-7; N-terminus assumed
SMILES: CC[C@H](C)[C@H](NC(=O)[C@H](C)NC(=O)CNC(=O)[C@H](Cc1ccccc1)NC(=O)[C@H](CC(N)=O)NC(=O)[C@@H]1CCCN1C(=O)[C@H](CO)NC(=O)[C@H](CO)NC(=O)[C@H](Cc1c[nH]cn1)NC(=O)[C@H](CCCNC(=N)N)NC(=O)[C@H](CC(C)C)NC(=O)[C@H](Cc1ccccc1)NC(=O)[C@H](C)NC(=O)[C@H](C)NC(=O)[C@H](CC(C)C)NC(=O)[C@H](CCCNC(=N)N)NC(=O)[C@H](CCC(N)=O)NC(=O)[C@@H](NC(=O)[C@H](C)NC(=O)[C@@H]1CSSC[C@H](NC(=O)[C@@H](N)CCCCNC(=O)CC[C@H](NC(=O)CCCCCCCCCCCCCCCCCCC(=O)O)C(=O)O)C(=O)N[C@@H](CC(N)=O)C(=O)N[C@@H]([C@@H](C)O)C(=O)N[C@@H](C)C(=O)N[C@@H]([C@@H](C)O)C(=O)N1)[C@@H](C)O)C(=O)N1CCC[C@H]1C(=O)N[C@@H](CO)C(=O)N[C@@H](CO)C(=O)N[C@H](C(=O)N[C@@H](CC(N)=O)C(=O)N[C@H](C(=O)NCC(=O)N[C@@H](Cc1c[nH]cn1)C(=O)N[C@@H](CC(N)=O)C(=O)N[C@H](C(=O)N[C@@H](Cc1ccc(O)cc1)C(N)=O)[C@@H](C)O)C(C)C)[C@@H](C)O
notes: also called 93; compound 93
B2: N^ε1-[(4S)-4-carboxy-4-(19-carboxynonadecanoylamino)butanoyl]-[Ala14,Arg17,Pro21,Pro27,Pro34]-h-amylin (peptide)
peptide: K([γGlu-C20 diacid])CNTATCATQRLAAFLRHSSPNFGAIPSSTNVGPNTY-NH2
modifications: disulfide 2-7; N-terminus assumed
SMILES: CC[C@H](C)[C@H](NC(=O)[C@H](C)NC(=O)CNC(=O)[C@H](Cc1ccccc1)NC(=O)[C@H](CC(N)=O)NC(=O)[C@@H]1CCCN1C(=O)[C@H](CO)NC(=O)[C@H](CO)NC(=O)[C@H](Cc1c[nH]cn1)NC(=O)[C@H](CCCNC(=N)N)NC(=O)[C@H](CC(C)C)NC(=O)[C@H](Cc1ccccc1)NC(=O)[C@H](C)NC(=O)[C@H](C)NC(=O)[C@H](CC(C)C)NC(=O)[C@H](CCCNC(=N)N)NC(=O)[C@H](CCC(N)=O)NC(=O)[C@@H](NC(=O)[C@H](C)NC(=O)[C@@H]1CSSC[C@H](NC(=O)[C@@H](N)CCCCNC(=O)CC[C@H](NC(=O)CCCCCCCCCCCCCCCCCCC(=O)O)C(=O)O)C(=O)N[C@@H](CC(N)=O)C(=O)N[C@@H]([C@@H](C)O)C(=O)N[C@@H](C)C(=O)N[C@@H]([C@@H](C)O)C(=O)N1)[C@@H](C)O)C(=O)N1CCC[C@H]1C(=O)N[C@@H](CO)C(=O)N[C@@H](CO)C(=O)N[C@H](C(=O)N[C@@H](CC(N)=O)C(=O)N[C@H](C(=O)NCC(=O)N1CCC[C@H]1C(=O)N[C@@H](CC(N)=O)C(=O)N[C@H](C(=O)N[C@@H](Cc1ccc(O)cc1)C(N)=O)[C@@H](C)O)C(C)C)[C@@H](C)O
notes: also called 94; compound 94
B3: N^ε1-[(4S)-4-carboxy-4-(19-carboxynonadecanoylamino)butanoyl]-[Arg14,Arg17,Pro21,Pro27,Pro31]-h-amylin (peptide)
peptide: K([γGlu-C20 diacid])CNTATCATQRLARFLRHSSPNFGAIPSSTPVGSNTY-NH2
modifications: disulfide 2-7; N-terminus assumed
SMILES: CC[C@H](C)[C@H](NC(=O)[C@H](C)NC(=O)CNC(=O)[C@H](Cc1ccccc1)NC(=O)[C@H](CC(N)=O)NC(=O)[C@@H]1CCCN1C(=O)[C@H](CO)NC(=O)[C@H](CO)NC(=O)[C@H](Cc1c[nH]cn1)NC(=O)[C@H](CCCNC(=N)N)NC(=O)[C@H](CC(C)C)NC(=O)[C@H](Cc1ccccc1)NC(=O)[C@H](CCCNC(=N)N)NC(=O)[C@H](C)NC(=O)[C@H](CC(C)C)NC(=O)[C@H](CCCNC(=N)N)NC(=O)[C@H](CCC(N)=O)NC(=O)[C@@H](NC(=O)[C@H](C)NC(=O)[C@@H]1CSSC[C@H](NC(=O)[C@@H](N)CCCCNC(=O)CC[C@H](NC(=O)CCCCCCCCCCCCCCCCCCC(=O)O)C(=O)O)C(=O)N[C@@H](CC(N)=O)C(=O)N[C@@H]([C@@H](C)O)C(=O)N[C@@H](C)C(=O)N[C@@H]([C@@H](C)O)C(=O)N1)[C@@H](C)O)C(=O)N1CCC[C@H]1C(=O)N[C@@H](CO)C(=O)N[C@@H](CO)C(=O)N[C@H](C(=O)N1CCC[C@H]1C(=O)N[C@H](C(=O)NCC(=O)N[C@@H](CO)C(=O)N[C@@H](CC(N)=O)C(=O)N[C@H](C(=O)N[C@@H](Cc1ccc(O)cc1)C(N)=O)[C@@H](C)O)C(C)C)[C@@H](C)O
notes: also called 63; compound 63
B4: N^ε1-[(4S)-4-carboxy-4-(19-carboxynonadecanoylamino)butanoyl]-[Arg14,Arg17,Pro21,Pro27]-h-amylin (peptide)
peptide: K([γGlu-C20 diacid])CNTATCATQRLARFLRHSSPNFGAIPSSTNVGSNTY-NH2
modifications: disulfide 2-7; N-terminus assumed
SMILES: CC[C@H](C)[C@H](NC(=O)[C@H](C)NC(=O)CNC(=O)[C@H](Cc1ccccc1)NC(=O)[C@H](CC(N)=O)NC(=O)[C@@H]1CCCN1C(=O)[C@H](CO)NC(=O)[C@H](CO)NC(=O)[C@H](Cc1c[nH]cn1)NC(=O)[C@H](CCCNC(=N)N)NC(=O)[C@H](CC(C)C)NC(=O)[C@H](Cc1ccccc1)NC(=O)[C@H](CCCNC(=N)N)NC(=O)[C@H](C)NC(=O)[C@H](CC(C)C)NC(=O)[C@H](CCCNC(=N)N)NC(=O)[C@H](CCC(N)=O)NC(=O)[C@@H](NC(=O)[C@H](C)NC(=O)[C@@H]1CSSC[C@H](NC(=O)[C@@H](N)CCCCNC(=O)CC[C@H](NC(=O)CCCCCCCCCCCCCCCCCCC(=O)O)C(=O)O)C(=O)N[C@@H](CC(N)=O)C(=O)N[C@@H]([C@@H](C)O)C(=O)N[C@@H](C)C(=O)N[C@@H]([C@@H](C)O)C(=O)N1)[C@@H](C)O)C(=O)N1CCC[C@H]1C(=O)N[C@@H](CO)C(=O)N[C@@H](CO)C(=O)N[C@H](C(=O)N[C@@H](CC(N)=O)C(=O)N[C@H](C(=O)NCC(=O)N[C@@H](CO)C(=O)N[C@@H](CC(N)=O)C(=O)N[C@H](C(=O)N[C@@H](Cc1ccc(O)cc1)C(N)=O)[C@@H](C)O)C(C)C)[C@@H](C)O
notes: also called 83; compound 83
B5: N^ε1-[(4S)-4-carboxy-4-(19-carboxynonadecanoylamino)butanoyl]-[Arg14,Arg17,Pro21,Pro27,Pro34]-h-amylin (peptide)
peptide: K([γGlu-C20 diacid])CNTATCATQRLARFLRHSSPNFGAIPSSTNVGPNTY-NH2
modifications: disulfide 2-7; N-terminus assumed
SMILES: CC[C@H](C)[C@H](NC(=O)[C@H](C)NC(=O)CNC(=O)[C@H](Cc1ccccc1)NC(=O)[C@H](CC(N)=O)NC(=O)[C@@H]1CCCN1C(=O)[C@H](CO)NC(=O)[C@H](CO)NC(=O)[C@H](Cc1c[nH]cn1)NC(=O)[C@H](CCCNC(=N)N)NC(=O)[C@H](CC(C)C)NC(=O)[C@H](Cc1ccccc1)NC(=O)[C@H](CCCNC(=N)N)NC(=O)[C@H](C)NC(=O)[C@H](CC(C)C)NC(=O)[C@H](CCCNC(=N)N)NC(=O)[C@H](CCC(N)=O)NC(=O)[C@@H](NC(=O)[C@H](C)NC(=O)[C@@H]1CSSC[C@H](NC(=O)[C@@H](N)CCCCNC(=O)CC[C@H](NC(=O)CCCCCCCCCCCCCCCCCCC(=O)O)C(=O)O)C(=O)N[C@@H](CC(N)=O)C(=O)N[C@@H]([C@@H](C)O)C(=O)N[C@@H](C)C(=O)N[C@@H]([C@@H](C)O)C(=O)N1)[C@@H](C)O)C(=O)N1CCC[C@H]1C(=O)N[C@@H](CO)C(=O)N[C@@H](CO)C(=O)N[C@H](C(=O)N[C@@H](CC(N)=O)C(=O)N[C@H](C(=O)NCC(=O)N1CCC[C@H]1C(=O)N[C@@H](CC(N)=O)C(=O)N[C@H](C(=O)N[C@@H](Cc1ccc(O)cc1)C(N)=O)[C@@H](C)O)C(C)C)[C@@H](C)O
notes: also called 65; compound 65

target: T1, human amylin receptor (amylin 3(a) …); test: SPA displacement of 125I-rat amylin, hAmylin 3(a) receptor membranes
Method in brief: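 SPA beads with BHK Amylin 3(a)/CRE-luc cell membranes (35 ng/μL final) in 50 mM Hepes pH 7.4, 1 mM CaCl2, 5 mM MgCl₂, 0.1% OA, 0.02% Tween20.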

| Binder | IC50 [nM] |
| --- | --- |
| B1 | 0.176 |
| B2 | 0.148 |
| B3 | 0.825 |
| B4 | 0.939 |
| B5 | 0.649 |
